# Measurements taken from US20220177587A1, “METHODS AND USES OF VARIANT CD80 FUSION PROTEINS AND RELATED CONSTRUCTS” (Alpine Immune Sciences, Inc., priority 2018, published 2022).
# Where a chain is given by its changes, count along the chain named. Names and notes keep the numbering of the source.
# B1: R29C/E35D/M47L/V68M/A71G/L85M (protein, UniProt P33681 35-288, looked up, variant R29C E35D M47L V68M A71G L85M)
# T-lymphocyte activation …: VIHVTKEVKEVATLSCGHNVSVEELAQTCIYWQKDKKMVLTMMSGDLNIWPEYKNRTIFDITNNLSIMILGLRPSDEGTYECVVMKYEKDAFKREHLAEVTLSVKADFPTPSISDFEIPTSNIRRIICSTSGGFPEPHLSWLENGEELNAINTTVSQDPETELYAVSSKLDFNMTTNHSFMCLIKYGHLRVNQTFNWNTTKQEHFPDNLLPSWAITLISVNGIFVICCLTYCFAPRCRERRRNERLRRESVRPV
# modifications: Fc fusion
# B2: V22D/E24D/E35D/M47V/V68M (protein)
# chain: VIHVTKEVKEVATLSCGHNVSDEDLAQTRIYWQKDKKMVLTMMSGDVNIWPEYKNRTIFDITNNLSIMILALRPSDEGTYECVVLKYEKDAFKREHLAEVTLSVKADFPTPSISDFETPTSNIRRIICSTSGGFPEPHLSWLENGEELNAINTTVSQDPETELYAVSSKLDFNMTTNHSFMCLIKYGHLRVNQTFNWNTTKQEHFPDN
# modifications: CD80 v385 ECD
# B3: E35D/M47V/K89N (protein)
# chain: VIHVTKEVKEVATLSCGHNVSVEELAQTRIYWQKDKKMVLTMMSGDVNIWPEYKNRTIFDITNNLSIVILALRPSDEGTYECVVLKYENDAFKREHLAEVTLSVKAD
# B4: E35D/N48K/V68M (protein)
# chain: B3 chain with V47M, N48K, V68M, N89K
# B5: M47V/V68M/K89N (protein)
# chain: B3 chain with D35E, V68M
# B6: H18Y/A26E/A71G/D90G (protein)
# chain: B3 chain with H18Y, A26E, D35E, V47M, A71G, N89K, D90G
# B7: E35D/V68M/A71G/D90G (protein)
# chain: B3 chain with V47M, V68M, A71G, N89K, D90G
# B8: A26P/E35D/M47I/V68M/A71G/D90G (protein, UniProt P33681 35-288, looked up, variant A26P E35D M47I V68M A71G D90G)
# T-lymphocyte activation …: B1 T-lymphocyte activation … with A26P, C29R, L47I, M85L, D90G
# B9: H18F/A26P/E35D/M47I/V68M/A71G/D90G (protein, UniProt P33681 35-288, looked up, variant H18F A26P E35D M47I V68M A71G D90G)
# T-lymphocyte activation …: B1 T-lymphocyte activation … with H18F, A26P, C29R, L47I, M85L, D90G
# How the values were obtained:
# CD28 [1] = biological target: T1, CD28 (Homo sapiens, UniProt P10747); test: Flow binding to Jurkat/IL2 reporter cells (CD28); design: host or cells: Jurkat cells expressing an IL-2-luciferase reporter
# Procedure, shortened: (§1)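 Fusion proteins bound to CHO cells stably expressing CTLA4 or PD-L1, or to Jurkat/IL2 reporter cells with endogenous CD28, for 45 min on ice after blocking in PBS/1% BSA. Detection with PE anti-human Fc by flow cytometry; PE MFI per cell type and binding EC50 determined.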
# huCTLA4 = huCTLA4 (Homo sapiens, UniProt P16410); test: Flow binding to CHO cells stably expressing CTLA4; design: huCTLA4 and huPD-L1, full-length mammalian surface expression constructs were generated; expressed in transfected cells; host or cells: CHO cells, lentiviral transduction, sorted to >98% purity; settings: CHO cells stably expressing CTLA4
# Sequence of huCTLA4 (P16410 36-223): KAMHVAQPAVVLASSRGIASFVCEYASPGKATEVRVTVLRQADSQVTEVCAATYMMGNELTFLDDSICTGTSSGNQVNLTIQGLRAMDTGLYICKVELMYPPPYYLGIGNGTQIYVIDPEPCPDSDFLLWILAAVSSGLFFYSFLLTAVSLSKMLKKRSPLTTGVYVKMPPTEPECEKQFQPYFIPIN
# Procedure, shortened: as §1
# CD28 [2] = biological target: T1, CD28; test: Jurkat/IL2 + CHO/OKT3 +/- PD-L1 reporter assay: PD-L1-dependent CD28 costimulation; format: cell-based; design: host or cells: Jurkat cells expressing an IL-2-luciferase reporter; settings: Jurkat/IL2 + CHO/OKT3/PD-L1; for Relative Luciferase Units (RLU), CD80 Cone 5.0 nM: Table E13
# Procedure, shortened: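 Jurkat reporter cells (100,000/well) preincubated 15 min at room temperature with test protein, then cocultured 5 h at 37 °C with CHO aAPCs bearing anti-CD3 scFv (OKT3) with or without PD-L1. Luciferase luminescence (RLU) read after lysis-substrate addition.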
# [3] = Table E11, Jurkats (CD28), 33.3 nM
# [4] = Table E19, Jurkats (CD28), 33.3 nM
# [5] = Table E20, Jurkats (CD28), 33.3 nM
# [6] = Table E23, CD80 IgV-Fc (inert) at 33.3 nM, Jurkat (CD28)
# [7] = Table E23, CD80 IgV-Fc (inert) at 33.3 nM
molecule,measurement,setting,value
B1,CD28 MFI at 33.3 nM,CD28 [1]; [3],16
same,CTLA4 MFI at 33.3 nM,"huCTLA4; Table E11, 33.3 nM",91
same,"Relative Luciferase Units (RLU), CD80 Cone 5.0 nM",CD28 [2]; 5.0 nM,155 RLU
B2,CD28 MFI at 33.3 nM,CD28 [1]; [3],191
same,CTLA4 MFI at 33.3 nM,"huCTLA4; Table E11, 33.3 nM",16899
same,"Relative Luciferase Units (RLU), CD80 Cone 5.0 nM",CD28 [2]; 5.0 nM,1023 RLU
B3,CD28 MFI at 33.3 nM,CD28 [1]; [4],507
same,CTLA4 MFI at 33.3 nM,"huCTLA4; Table E19, 33.3 nM",39282
same,"Relative Luciferase Units (RLU), CD80 Conc 5.0 nM","CD28 [2]; Table E21, CD80 Conc 5.0 nM",668 RLU
B4,CD28 MFI at 33.3 nM,CD28 [1]; [4],642
same,CTLA4 MFI at 33.3 nM,"huCTLA4; Table E19, 33.3 nM",33583
same,"Relative Luciferase Units (RLU), CD80 Conc 5.0 nM","CD28 [2]; Table E21, CD80 Conc 5.0 nM",721 RLU
B5,CD28 MFI at 33.3 nM,CD28 [1]; [4],1324
same,CTLA4 MFI at 33.3 nM,"huCTLA4; Table E19, 33.3 nM",24787
same,"Relative Luciferase Units (RLU), CD80 Conc 5.0 nM","CD28 [2]; Table E21, CD80 Conc 5.0 nM",862 RLU
B6,CD28 MFI at 33.3 nM,CD28 [1]; [5],2001
same,CTLA4 MFI at 33.3 nM,"huCTLA4; Table E20, 33.3 nM",19878
same,"Relative Luciferase Units (RLU), CD80 Conc 5.0 nM","CD28 [2]; Table E22, CD80 Conc 5.0 nM",933 RLU
B7,CD28 MFI at 33.3 nM,CD28 [1]; [5],2843
same,CTLA4 MFI at 33.3 nM,"huCTLA4; Table E20, 33.3 nM",23290
same,"Relative Luciferase Units (RLU), CD80 Conc 5.0 nM","CD28 [2]; Table E22, CD80 Conc 5.0 nM",990 RLU
B8,CD28 MFI at 33.3 nM,CD28 [1]; [6],8189
same,CTLA4 MFI at 33.3 nM,huCTLA4; [7],19761
same,"Relative Luciferase Units (RLU), CD80 Conc 5.0 nM","CD28 [2]; Table E24, 5.0 nM",823 RLU
B9,CD28 MFI at 33.3 nM,CD28 [1]; [6],4801
same,CTLA4 MFI at 33.3 nM,huCTLA4; [7],23932
same,"Relative Luciferase Units (RLU), CD80 Conc 5.0 nM","CD28 [2]; Table E24, 5.0 nM",926 RLU
